Laboratory results as given in patent publication US20250340902A1, “GENE THERAPY FOR BVES-RELATED DISORDERS” (OHIO STATE INNOVATION FOUNDATION, priority 2022, published 2025).

Experiments:
Experiment in all cases: anti-HA co-IP from muscle, MS; CTRL 0
[1] = target: 26S proteasome non-ATPase regulatory subunit 7 (Mus musculus) (UniProt P26516)
[2] = target: ATP-binding cassette sub-family F member 1 (Mus musculus) (UniProt Q6P542)
[3] = target: ATPase family AAA domain-containing protein 3 (Mus musculus) (UniProt Q925I1)
[4] = target: Ankyrin-2 (Mus musculus) (UniProt Q8C8R3)
[5] = target: Beta-sarcoglycan (Mus musculus) (UniProt P82349)
[6] = target: Bifunctional purine biosynthesis protein ATIC (Mus musculus) (UniProt Q9CWJ9)
[7] = target: C-type lectin domain family 3 member A (Mus musculus) (UniProt Q9EPW4)
[8] = target: Casein kinase II subunit alpha (Mus musculus) (UniProt Q60737)
[9] = target: Coatomer subunit epsilon (Mus musculus) (UniProt O89079)
[10] = target: DNA replication licensing factor MCM2 (Mus musculus) (UniProt P97310)
[11] = target: DnaJ homolog subfamily B member 2 (Mus musculus) (UniProt Q9QYI5)
[12] = target: Dystroglycan (Mus musculus) (UniProt Q62165)
[13] = target: E3 ubiquitin-protein ligase UBR4 (Mus musculus) (UniProt A2AN08)
[14] = target: Elongin-A (Mus musculus) (UniProt Q8CB77)
[15] = target: Exosome complex exonuclease RRP44 (Mus musculus) (UniProt Q9CSH3)
[16] = target: Haloacid dehalogenase-like hydrolase domain-containing protein 2 (Mus musculus) (UniProt Q3UGR5)
[17] = target: Indolethylamine N-methyltransferase (Mus musculus) (UniProt P40936)
[18] = target: LEM domain-containing protein 2 (Mus musculus) (UniProt Q6DVA0)
[19] = target: Medium-chain specific acyl-CoA dehydrogenase, mitochondrial (Mus musculus) (UniProt P45952)
[20] = target: Monocarboxylate transporter 4 (Mus musculus) (UniProt P57787)
[21] = target: Multidrug resistance-associated protein 1 (Mus musculus) (UniProt O35379)
[22] = target: Nucleolar and coiled-body phosphoprotein 1 (Mus musculus) (UniProt E9Q5C9)
[23] = target: Nucleolar protein 12 (Mus musculus) (UniProt Q8BG17)
Nucleolar protein 12 (Mus musculus), sequence (Q8BG17 whole entry, the tested form may be a part): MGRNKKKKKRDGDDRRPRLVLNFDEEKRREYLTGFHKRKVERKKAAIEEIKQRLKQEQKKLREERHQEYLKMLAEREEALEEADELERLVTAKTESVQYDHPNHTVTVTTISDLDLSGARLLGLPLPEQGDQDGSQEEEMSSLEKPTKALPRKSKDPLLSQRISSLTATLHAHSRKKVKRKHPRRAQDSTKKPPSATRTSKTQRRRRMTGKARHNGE

[24] = target: Patatin-like phospholipase domain-containing protein 7 (Mus musculus) (UniProt A2AJ88)
[25] = target: Phosphatidylinositol 5-phosphate 4-kinase type-2 beta (Mus musculus) (UniProt Q80XI4)
[26] = target: Popeye domain-containing protein 3 (Mus musculus) (UniProt Q9ES81)
Popeye domain-containing protein 3 (Mus musculus), sequence (Q9ES81 whole entry, the tested form may be a part): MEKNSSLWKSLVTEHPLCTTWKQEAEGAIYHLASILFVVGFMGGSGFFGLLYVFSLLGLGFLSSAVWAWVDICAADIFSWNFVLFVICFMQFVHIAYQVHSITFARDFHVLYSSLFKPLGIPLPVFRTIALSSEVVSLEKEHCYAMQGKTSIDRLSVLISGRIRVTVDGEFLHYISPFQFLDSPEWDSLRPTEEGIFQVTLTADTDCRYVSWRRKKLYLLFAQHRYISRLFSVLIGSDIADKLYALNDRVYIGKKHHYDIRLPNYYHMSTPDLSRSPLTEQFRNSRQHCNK

[27] = target: Probable ubiquitin carboxyl-terminal hydrolase FAF-X (Mus musculus) (UniProt P70398)
[28] = target: Proliferation-associated protein 2G4 (Mus musculus) (UniProt P50580)
[29] = target: SUN domain-containing protein 2 (Mus musculus) (UniProt Q8BJS4)
[30] = target: Sorting and assembly machinery component 50 homolog (Mus musculus) (UniProt Q8BGH2)
[31] = target: Spectrin alpha chain, erythrocytic 1 (Mus musculus) (UniProt P08032)
Spectrin alpha chain, erythrocytic 1 (Mus musculus), sequence (P08032 whole entry): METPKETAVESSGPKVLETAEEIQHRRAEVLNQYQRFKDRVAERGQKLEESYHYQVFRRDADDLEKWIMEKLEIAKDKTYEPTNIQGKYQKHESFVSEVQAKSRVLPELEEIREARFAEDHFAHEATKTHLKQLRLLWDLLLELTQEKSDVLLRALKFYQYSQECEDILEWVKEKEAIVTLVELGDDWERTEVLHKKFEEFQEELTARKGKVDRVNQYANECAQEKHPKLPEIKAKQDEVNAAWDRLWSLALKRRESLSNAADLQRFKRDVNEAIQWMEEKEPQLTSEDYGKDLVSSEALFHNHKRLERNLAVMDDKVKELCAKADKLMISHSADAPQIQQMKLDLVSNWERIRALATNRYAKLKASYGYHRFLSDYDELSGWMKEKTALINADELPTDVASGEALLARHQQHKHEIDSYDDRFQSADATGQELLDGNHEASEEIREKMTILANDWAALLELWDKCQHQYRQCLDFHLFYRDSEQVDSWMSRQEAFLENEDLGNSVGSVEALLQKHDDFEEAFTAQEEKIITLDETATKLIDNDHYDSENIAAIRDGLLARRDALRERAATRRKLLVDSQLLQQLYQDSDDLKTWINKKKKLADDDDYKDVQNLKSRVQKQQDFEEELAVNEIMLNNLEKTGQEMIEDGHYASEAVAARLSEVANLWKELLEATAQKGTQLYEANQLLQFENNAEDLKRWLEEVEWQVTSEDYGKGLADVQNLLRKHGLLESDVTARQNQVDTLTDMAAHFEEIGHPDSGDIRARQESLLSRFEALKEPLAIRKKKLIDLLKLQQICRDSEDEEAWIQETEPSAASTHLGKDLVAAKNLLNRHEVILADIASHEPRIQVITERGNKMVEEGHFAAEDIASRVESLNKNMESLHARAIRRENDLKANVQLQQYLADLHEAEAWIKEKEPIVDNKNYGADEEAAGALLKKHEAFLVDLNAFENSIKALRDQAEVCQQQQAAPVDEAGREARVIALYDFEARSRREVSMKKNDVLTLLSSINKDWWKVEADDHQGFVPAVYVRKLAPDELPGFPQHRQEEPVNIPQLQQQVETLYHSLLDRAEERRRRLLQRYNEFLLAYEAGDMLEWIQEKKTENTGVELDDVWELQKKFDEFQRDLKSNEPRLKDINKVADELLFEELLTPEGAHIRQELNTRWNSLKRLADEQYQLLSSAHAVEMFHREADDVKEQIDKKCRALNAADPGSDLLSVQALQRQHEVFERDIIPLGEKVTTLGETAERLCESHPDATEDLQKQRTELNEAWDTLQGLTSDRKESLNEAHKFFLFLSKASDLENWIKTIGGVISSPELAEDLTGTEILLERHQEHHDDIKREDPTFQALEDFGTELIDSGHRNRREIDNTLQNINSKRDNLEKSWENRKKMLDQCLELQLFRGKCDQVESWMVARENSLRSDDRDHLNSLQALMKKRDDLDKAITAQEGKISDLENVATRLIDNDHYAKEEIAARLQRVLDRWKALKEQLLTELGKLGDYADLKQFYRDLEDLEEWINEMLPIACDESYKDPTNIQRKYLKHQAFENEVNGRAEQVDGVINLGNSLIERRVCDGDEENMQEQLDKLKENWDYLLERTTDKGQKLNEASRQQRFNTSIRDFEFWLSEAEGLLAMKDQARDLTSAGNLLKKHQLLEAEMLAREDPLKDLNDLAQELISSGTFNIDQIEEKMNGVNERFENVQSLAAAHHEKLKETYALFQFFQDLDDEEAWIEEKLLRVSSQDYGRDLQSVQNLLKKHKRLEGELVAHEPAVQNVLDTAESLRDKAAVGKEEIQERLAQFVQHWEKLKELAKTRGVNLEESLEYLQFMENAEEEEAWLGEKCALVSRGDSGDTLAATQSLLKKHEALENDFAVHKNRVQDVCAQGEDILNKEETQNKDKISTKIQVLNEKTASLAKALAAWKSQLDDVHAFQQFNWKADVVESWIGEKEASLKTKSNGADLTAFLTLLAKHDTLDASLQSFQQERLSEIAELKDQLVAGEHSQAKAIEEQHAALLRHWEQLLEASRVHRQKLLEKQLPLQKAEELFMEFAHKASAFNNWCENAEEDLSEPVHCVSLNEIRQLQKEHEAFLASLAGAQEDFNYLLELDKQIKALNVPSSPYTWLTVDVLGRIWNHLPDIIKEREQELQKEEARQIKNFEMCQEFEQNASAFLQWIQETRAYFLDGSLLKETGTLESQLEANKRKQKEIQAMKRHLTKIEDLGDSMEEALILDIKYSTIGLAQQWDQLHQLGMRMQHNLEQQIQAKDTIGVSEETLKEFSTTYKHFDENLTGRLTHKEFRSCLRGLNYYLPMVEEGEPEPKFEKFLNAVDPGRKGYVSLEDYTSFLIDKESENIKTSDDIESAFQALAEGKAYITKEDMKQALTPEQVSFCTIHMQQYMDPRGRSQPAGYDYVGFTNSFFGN

[32] = target: Sulfide:quinone oxidoreductase, mitochondrial (Mus musculus) (UniProt Q9R112)
[33] = target: Translocation protein SEC62 (Mus musculus) (UniProt Q8BU14)
[34] = target: Transmembrane protein 43 (Mus musculus) (UniProt Q9DBS1)
[35] = target: Triggering receptor expressed on myeloid cells 2 (Mus musculus) (UniProt Q99NH8)
Triggering receptor expressed on myeloid cells 2 (Mus musculus), sequence (Q99NH8 19-227 limits assumed): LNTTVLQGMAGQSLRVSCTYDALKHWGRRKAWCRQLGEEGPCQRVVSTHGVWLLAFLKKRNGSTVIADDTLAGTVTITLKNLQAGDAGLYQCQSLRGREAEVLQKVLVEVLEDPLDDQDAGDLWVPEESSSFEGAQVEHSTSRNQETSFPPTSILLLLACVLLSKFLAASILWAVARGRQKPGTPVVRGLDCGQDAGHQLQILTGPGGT

[36] = target: U2 small nuclear ribonucleoprotein B″ (Mus musculus) (UniProt Q9CQI7)
[37] = target: Vitamin K-dependent protein C (Mus musculus) (UniProt P33587)
[38] = target: Voltage-dependent L-type calcium channel subunit alpha-1s (Mus musculus) (UniProt Q02789)
Voltage-dependent L-type calcium channel subunit alpha-1s (Mus musculus), sequence (Q02789 whole entry): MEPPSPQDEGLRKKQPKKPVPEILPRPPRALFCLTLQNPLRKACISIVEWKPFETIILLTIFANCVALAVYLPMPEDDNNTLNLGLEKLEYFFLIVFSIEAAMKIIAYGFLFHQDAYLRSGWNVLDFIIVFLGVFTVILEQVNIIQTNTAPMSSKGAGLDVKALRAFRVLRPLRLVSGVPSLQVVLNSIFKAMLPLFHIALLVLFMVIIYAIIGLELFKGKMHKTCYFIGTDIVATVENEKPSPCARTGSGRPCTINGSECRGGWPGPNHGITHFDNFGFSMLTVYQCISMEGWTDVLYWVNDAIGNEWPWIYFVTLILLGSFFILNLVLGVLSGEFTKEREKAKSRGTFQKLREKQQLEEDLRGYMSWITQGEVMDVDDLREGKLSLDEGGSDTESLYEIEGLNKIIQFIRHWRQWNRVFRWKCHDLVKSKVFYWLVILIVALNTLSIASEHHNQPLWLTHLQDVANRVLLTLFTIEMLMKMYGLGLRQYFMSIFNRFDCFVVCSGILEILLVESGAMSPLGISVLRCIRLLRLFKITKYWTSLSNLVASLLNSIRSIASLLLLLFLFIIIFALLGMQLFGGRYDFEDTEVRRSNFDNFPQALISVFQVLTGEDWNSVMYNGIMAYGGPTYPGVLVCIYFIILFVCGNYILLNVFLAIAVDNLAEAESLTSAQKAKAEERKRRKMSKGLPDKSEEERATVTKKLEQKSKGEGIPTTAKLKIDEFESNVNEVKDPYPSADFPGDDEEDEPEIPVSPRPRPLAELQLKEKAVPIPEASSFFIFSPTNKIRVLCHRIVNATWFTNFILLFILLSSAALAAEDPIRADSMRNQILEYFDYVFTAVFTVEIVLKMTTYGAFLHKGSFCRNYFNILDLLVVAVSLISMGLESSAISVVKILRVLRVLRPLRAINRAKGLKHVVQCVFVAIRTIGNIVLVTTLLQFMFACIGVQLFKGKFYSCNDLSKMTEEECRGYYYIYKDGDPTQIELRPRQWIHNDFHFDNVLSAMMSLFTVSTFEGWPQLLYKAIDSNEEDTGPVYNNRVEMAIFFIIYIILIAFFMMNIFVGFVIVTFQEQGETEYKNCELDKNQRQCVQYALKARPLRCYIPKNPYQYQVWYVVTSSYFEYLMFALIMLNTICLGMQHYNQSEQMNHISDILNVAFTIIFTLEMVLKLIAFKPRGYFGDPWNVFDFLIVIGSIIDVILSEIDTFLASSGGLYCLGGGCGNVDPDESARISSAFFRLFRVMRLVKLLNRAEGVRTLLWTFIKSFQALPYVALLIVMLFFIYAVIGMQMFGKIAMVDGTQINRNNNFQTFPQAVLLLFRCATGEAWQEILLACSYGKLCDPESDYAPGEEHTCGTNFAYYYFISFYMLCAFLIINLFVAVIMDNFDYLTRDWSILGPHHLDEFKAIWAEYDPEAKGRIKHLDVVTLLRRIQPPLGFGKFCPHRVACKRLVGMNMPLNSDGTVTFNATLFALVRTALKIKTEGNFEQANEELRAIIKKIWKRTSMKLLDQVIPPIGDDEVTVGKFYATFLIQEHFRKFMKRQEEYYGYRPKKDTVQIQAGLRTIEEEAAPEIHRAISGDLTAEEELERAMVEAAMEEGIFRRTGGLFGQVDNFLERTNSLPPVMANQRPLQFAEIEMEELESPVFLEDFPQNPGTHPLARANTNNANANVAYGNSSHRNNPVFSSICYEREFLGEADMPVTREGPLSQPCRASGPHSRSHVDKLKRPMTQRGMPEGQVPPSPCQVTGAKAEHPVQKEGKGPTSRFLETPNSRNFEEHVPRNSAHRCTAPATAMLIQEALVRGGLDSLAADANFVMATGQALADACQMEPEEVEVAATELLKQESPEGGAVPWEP

AAV9-BVES-HA (IP-MS count) [1]: 2
AAV9-BVES-HA (IP-MS count) [2]: 4
AAV9-BVES-HA (IP-MS count) [3]: 3
AAV9-BVES-HA (IP-MS count) [4]: 36
AAV9-BVES-HA (IP-MS count) [5]: 9
AAV9-BVES-HA (IP-MS count) [6]: 3
AAV9-BVES-HA (IP-MS count) [7]: 6
AAV9-BVES-HA (IP-MS count) [8]: 2
AAV9-BVES-HA (IP-MS count) [9]: 2
AAV9-BVES-HA (IP-MS count) [10]: 4
AAV9-BVES-HA (IP-MS count) [11]: 2
AAV9-BVES-HA (IP-MS count) [12]: 4
AAV9-BVES-HA (IP-MS count) [13]: 4
AAV9-BVES-HA (IP-MS count) [14]: 3
AAV9-BVES-HA (IP-MS count) [15]: 2
AAV9-BVES-HA (IP-MS count) [16]: 3
AAV9-BVES-HA (IP-MS count) [17]: 2
AAV9-BVES-HA (IP-MS count) [18]: 2
AAV9-BVES-HA (IP-MS count) [19]: 2
AAV9-BVES-HA (IP-MS count) [20]: 12
AAV9-BVES-HA (IP-MS count) [21]: 2
AAV9-BVES-HA (IP-MS count) [22]: 3
AAV9-BVES-HA (IP-MS count) [23]: 2
AAV9-BVES-HA (IP-MS count) [24]: 2
AAV9-BVES-HA (IP-MS count) [25]: 2
AAV9-BVES-HA (IP-MS count) [26]: 5
AAV9-BVES-HA (IP-MS count) [27]: 3
AAV9-BVES-HA (IP-MS count) [28]: 7
AAV9-BVES-HA (IP-MS count) [29]: 14
AAV9-BVES-HA (IP-MS count) [30]: 5
AAV9-BVES-HA (IP-MS count) [31]: 27
AAV9-BVES-HA (IP-MS count) [32]: 3
AAV9-BVES-HA (IP-MS count) [33]: 2
AAV9-BVES-HA (IP-MS count) [34]: 2
AAV9-BVES-HA (IP-MS count) [35]: 2
AAV9-BVES-HA (IP-MS count) [36]: 2
AAV9-BVES-HA (IP-MS count) [37]: 2
AAV9-BVES-HA (IP-MS count) [38]: 13
Substance: human BVES fused with 3xHA tag (from UniProt Q8NE79 1-360)
